Test results published in US20240279356A1 (Xencor, published 2024).
Positions count from the first letter of the chain named. Names may count otherwise.

B1: XENP32564 (bispecific antibody)
Fab-Fc heavy chain (anti-MSLN VH): QVQLVQSGAEVKKPGASVKVSCKASGYTFTSYWMHWVRQAPGQGLEWMGMIHPNSDNTIYYEKFQGRVTMTVDKSISTAYMELSRLRSDDTAVYYCAIIITPVVPKFDYWGQGTLVTVSSASTKGPSVFPLAPSSKSTSGGTAALGCLVKDYFPEPVTVSWNSGALTSGVHTFPAVLQSSGLYSLSSVVTVPSSSLGTQTYICNVNHKPSDTKVDKKVEPKSCDKTHTCPPCPAPPVAGPSVFLFPPKPKDTLMISRTPEVTCVVVDVKHEDPEVKFNWYVDGVEVHNAKTKPREEEYNSTYRVVSVLTVLHQDWLNGKEYKCKVSNKALPAPIEKTISKAKGQPREPQVYTLPPSREEMTKNQVSLTCDVSGFYPSDIAVEWESDGQPENNYKTTPPVLDSDGSFFLYSKLTVDKSRWEQGDVFSCSVMHEALHNHYTQKSLSLSPGK
scFv-Fc heavy chain (anti-CD3 H1.30_L1.47): not shown
light chain (anti-MSLN VL): DIVMTQSPDSLAVSLGERATINCKASHDVGTSLAWYQQKPGQSPKLLIYWASTRHTGVPDRFTGSGSGTDFTLTISSLQAEDVAVYFCQQYSSYPLTFGAGTKLEIKRTVAAPSVFIFPPSDEQLKSGTASVVCLLNNFYPREAKVQWKVDNALQSGNSQESVTEQDSKDSTYSLSSTLTLSKADYEKHKVYACEVTHQGLSSPVTKSFNRGEC
notes: 1+1 Fab-scFv-Fc bsAb; VH WT, VL V33L (Kabat); also called MESO-C H1_L1.6
B2: XENP32943 (bispecific antibody)
heavy: B1 Fab-Fc heavy chain (anti-MSLN VH) with M50W
scFv-Fc: not shown
light: B1 light chain (anti-MSLN VL) with L33V, Y94I
notes: VH M50W, VL Y94I as printed; also called MESO-C H1.3_L1.17; copies: 1 + 1 + 1
B3: XENP32940 (bispecific antibody)
heavy: B1 Fab-Fc heavy chain (anti-MSLN VH) with M50W
scFv-Fc: not shown
light: B1 light chain (anti-MSLN VL) with L33V, Y94F
notes: VH M50W, VL Y100F as printed; also called MESO-C H1.3_L1.14; copies: 1 + 1 + 1
B4: XENP32556 (bispecific antibody)
Fab-Fc heavy chain (anti-MSLN VH): B1 Fab-Fc heavy chain (anti-MSLN VH) with I98R
scFv-Fc heavy chain (anti-CD3 H1.30_L1.47): not shown
light chain (anti-MSLN VL): B1 light chain (anti-MSLN VL) with L33V
notes: 1+1 Fab-scFv-Fc bsAb; VH I94R, VL WT (Kabat); also called MESO-C H1.7_L1
B5: XENP32948 (bispecific antibody)
heavy: B1 Fab-Fc heavy chain (anti-MSLN VH) with E62Q
Fab-scFv-Fc: QVQLVQSGAEVKKPGASVKVSCKASGYTFTSYWMHWVRQAPGQGLEWMGMIHPNSDNTIYYQKFQGRVTMTVDKSISTAYMELSRLRSDDTAVYYCAIIITPVVPKFDYWGQGTLVTVSSASTKGPSVFPLAPSSKSTSGGTAALGCLVKDYFPEPVTVSWNSGALTSGVHTFPAVLQSSGLYSLSSVVTVPSSSLGTQTYICNVNHKPSNTKVDKKVEPKSCGGGGSGGGGSQAVVTQEPSLTVSPGGTVTLTCGSSTGAVTTSNYANWVQQKPGKSPRGLIGGTNKRAPGVPARFSGSLLGGKAALTISGAQPEDEADYYCALWYSNHWVFGGGTKLTVLGKPGSGKPGSGKPGSGKPGSEVQLVESGGGLVQPGGSLRLSCAASGFTFSTYAMNWVRQAPGKGLEWVGRIRSKANNYATYYADSVKGRFTISRDDSKNTLYLQMNSLRAEDTAVYYCVRHGNFGDSYVSWFAYWGQGTLVTVSSGGGGSGGGGSKTHTCPPCPAPPVAGPSVFLFPPKPKDTLMISRTPEVTCVVVDVKHEDPEVKFNWYVDGVEVHNAKTKPREEQYNSTYRVVSVLTVLHQDWLNGKEYKCKVSNKALPAPIEKTISKAKGQPREPQVYTLPPSREQMTKNQVKLTCLVKGFYPSDIAVEWESNGQPENNYKTTPPVLDSDGSFFLYSKLTVDKSRWQQGNVFSCSVMHEALHNHYTQKSLSLSPGK
light: B1 light chain (anti-MSLN VL) with L33V, S92Y
notes: 2+1 Fab2-scFv-Fc
B6: XENP32568 (bispecific antibody)
Fab-Fc heavy chain (anti-MSLN VH): B1 Fab-Fc heavy chain (anti-MSLN VH)
scFv-Fc heavy chain (anti-CD3 H1.30_L1.47): not shown
light chain (anti-MSLN VL): B1 light chain (anti-MSLN VL) with L33V, Y94T
notes: 1+1 Fab-scFv-Fc bsAb; VH WT, VL Y94T (Kabat); also called MESO-C H1_L1.10
B7: XENP32555 (bispecific antibody)
Fab-Fc heavy chain (anti-MSLN VH): B1 Fab-Fc heavy chain (anti-MSLN VH) with D56G
scFv-Fc heavy chain (anti-CD3 H1.30_L1.47): not shown
light chain (anti-MSLN VL): B1 light chain (anti-MSLN VL) with L33V
notes: 1+1 Fab-scFv-Fc bsAb; VH D55G, VL WT (Kabat); also called MESO-C H1.6_L1
B8: XENP32947 (bispecific antibody)
heavy 1: B1 Fab-Fc heavy chain (anti-MSLN VH) with M50W
heavy 2: B5 Fab-scFv-Fc with M50W, Q62E
light: B1 light chain (anti-MSLN VL) with L33V
notes: 2+1 Fab2-scFv-Fc; copies: 1 + 1 + 2
B9: XENP32554 (bispecific antibody)
Fab-Fc heavy chain (anti-MSLN VH): B1 Fab-Fc heavy chain (anti-MSLN VH) with N54Q
scFv-Fc heavy chain (anti-CD3 H1.30_L1.47): not shown
light chain (anti-MSLN VL): B1 light chain (anti-MSLN VL) with L33V
notes: 1+1 Fab-scFv-Fc bsAb; VH N53Q, VL WT (Kabat); also called MESO-C H1.5_L1
B10: XENP32570 (bispecific antibody)
heavy: B1 Fab-Fc heavy chain (anti-MSLN VH) with D56G
scFv-Fc: not shown
light: B1 light chain (anti-MSLN VL) with D28S, L33V
notes: VH D55G, VL D28S (Kabat); also called MESO-C H1.6_L1.3; copies: 1 + 1 + 1

Key:
cyno MSLN = target: T1, cyno MSLN (Macaca fascicularis (cynomolgus)); assay: Octet BLI; bsAb on anti-human Fc sensor, cyno MSLN as analyte, one concentration
T1 construct: soluble antigen for Octet; also called cynomolgus MSLN

human MSLN antigen [1] = target: T2, human MSLN antigen (human, UniProt Q13421 296-580, limits assumed); assay: Octet BLI; bsAb on anti-human Fc sensor, human MSLN as analyte, one concentration; parameters: Response: unit not given here
T2 construct: Soluble antigen for BLI; also called Mesothelin; MESO
Source text: (§1) Variants of MESO-C were engineered by introducing point substitutions into the variable heavy region (VH) and the variable light region (VL) to generate 11 VH variants and 16 VL variants (sequences for which are depicted in FIG. 18 as H1.1-H1.13 and in FIG. 19 as L1.1-L1.18). An additional 4 VL variants were generated by combining useful point substitutions (sequences for which are depicted in FIG. 19 as L1.19-L1.22). WT and variant variable heavy regions were paired with WT and variant variable light regions to generate variant variable regions (Fvs) which were produced in the context of anti-MSLN×anti-CD3 bispecific antibodies. The bispecific antibodies were screened for MSLN binding affinity using Octet®, a BioLayer Interferometry (BLI)-based method. Experimental steps for Octet® generally include the following: Immobilization (capture of ligand to a biosensor); Association (dipping of ligand-coated biosensors into wells containing the analyte); and Dissociation (returning of biosensors to well containing buffer). In an initial screening, anti-human Fc sensors were used to capture the bispecific mAbs and dipped into human MSLN antigen (one concentration to screen large library). The resulting dissociation constant of illustrative variants (KD), association rate (kₐ), dissociation rate (kd), as well as sensorgram response are depicted in FIG. 20. In further screening of favorite variants identified in the initial screen (and combination variants), bispecific mAbs were dipped into multiple concentrations of human MSLN antigen, data for which are depicted in FIG. 21 (from various screens).

human MSLN antigen [2] = target: T2, human MSLN antigen; assay: Octet BLI; bsAb on anti-human Fc sensor, human MSLN as analyte, several concentrations
Source text: as §1

human MSLN antigen [3] = target: T2, human MSLN antigen; assay: Octet BLI on human MSLN antigen (Example 2B(a)); KD quoted in the FIG. 35 legend
Source text: as §1

T2 sequence (Q13421 other isoform, or with tags, fused parts or gaps limits assumed): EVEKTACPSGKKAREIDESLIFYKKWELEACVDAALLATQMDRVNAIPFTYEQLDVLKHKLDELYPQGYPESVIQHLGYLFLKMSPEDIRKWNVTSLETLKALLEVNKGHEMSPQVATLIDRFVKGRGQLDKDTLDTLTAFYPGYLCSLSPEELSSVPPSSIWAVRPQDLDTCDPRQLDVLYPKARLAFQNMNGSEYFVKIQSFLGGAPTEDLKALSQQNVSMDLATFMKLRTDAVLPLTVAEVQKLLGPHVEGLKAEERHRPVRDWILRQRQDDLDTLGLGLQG

Binder	Kd (cyno MSLN) [nM]	Response (cyno MSLN)	koff (cyno MSLN) [s⁻¹]	kon (cyno MSLN) [M⁻¹ s⁻¹]	Kd (human MSLN antigen [1]) [nM]	Response (human MSLN antigen [1])	koff (human MSLN antigen [1]) [s⁻¹]	kon (human MSLN antigen [1]) [M⁻¹ s⁻¹]	Response (human MSLN antigen [2])	binding result (human MSLN antigen [2])	Kd (human MSLN antigen [2]) [nM]	koff (human MSLN antigen [2]) [s⁻¹]	kon (human MSLN antigen [2]) [M⁻¹ s⁻¹]	Kd (human MSLN antigen [3]) [nM]
B1	0.0297	0.849	2.01e-05	676000	0.0861	0.952	5.68e-05	660000						
B2									0.0022	no binding				
B3									0.136		246	0.0816	332000	
B4	0.395	1.07	0.000157	399000	0.469	1.18	0.000199	425000						
B5														10.2
B6		0.0728				0.107								
B7	0.603	1.11	0.000342	566000	0.684	1.23	0.000375	549000						
B8														9.2
B9	0.414	1.03	0.00023	555000	0.483	1.13	0.000268	555000						
B10	0.155	0.95	0.000105	676000	0.103	0.981	7.35e-05	717000						
